T1: FcγRIIb extracellular domain, His tag (human, UniProt P31994 43-217)
T1 construct: extracellular domain; also called FcgRIIb
T1 sequence (looked up): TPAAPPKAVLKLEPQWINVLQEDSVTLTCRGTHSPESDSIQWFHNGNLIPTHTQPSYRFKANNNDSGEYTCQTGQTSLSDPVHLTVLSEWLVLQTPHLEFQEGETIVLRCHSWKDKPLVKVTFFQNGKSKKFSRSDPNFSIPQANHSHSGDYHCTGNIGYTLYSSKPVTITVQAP

T2: FcγRIIa R type extracellular domain, His tag (human, UniProt P12318 34-217)
T2 construct: extracellular domain; also called FcgRIIaR
T2 sequence (looked up): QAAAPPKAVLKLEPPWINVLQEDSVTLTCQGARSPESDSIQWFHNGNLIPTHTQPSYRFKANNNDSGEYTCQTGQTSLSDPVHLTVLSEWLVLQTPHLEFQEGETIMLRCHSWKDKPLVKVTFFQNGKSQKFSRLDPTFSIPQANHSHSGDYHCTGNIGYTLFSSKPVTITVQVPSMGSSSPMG

T3: FcgRIIb (human, UniProt P31994 43-217)
T3 construct: extracellular domain; also called FcγRIIb
T3 sequence (looked up): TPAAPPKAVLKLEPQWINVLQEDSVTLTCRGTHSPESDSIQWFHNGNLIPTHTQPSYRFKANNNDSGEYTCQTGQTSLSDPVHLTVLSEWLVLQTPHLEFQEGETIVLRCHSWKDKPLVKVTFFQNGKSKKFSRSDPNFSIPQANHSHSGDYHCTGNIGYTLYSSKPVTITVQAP

T4: FcgRIIaR (human, UniProt P12318 34-217)
T4 construct: extracellular domain; also called FcγRIIa R type; FcγRIIa (R type)
T4 sequence (looked up): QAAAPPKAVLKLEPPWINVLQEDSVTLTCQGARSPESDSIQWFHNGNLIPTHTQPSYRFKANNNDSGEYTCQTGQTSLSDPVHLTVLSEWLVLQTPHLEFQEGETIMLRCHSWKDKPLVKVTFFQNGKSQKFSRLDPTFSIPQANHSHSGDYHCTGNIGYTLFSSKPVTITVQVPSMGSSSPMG


Key:
[1] = target: T1, FcγRIIb extracellular domain, His tag; assay: SPR, bound amount per captured antibody
[2] = target: T2, FcγRIIa R type extracellular domain, …; assay: SPR, bound amount per captured antibody
FcgRIIb = target: T3, FcgRIIb; assay: SPR, amount bound per captured antibody
FcgRIIaR = target: T4, FcgRIIaR; assay: SPR, amount bound per captured antibody

Binder | Relative FcgRIIb-binding Activity [1] | Relative FcgRIIaR-binding Activity [2] | Relative FcgRIIb-binding Activity (FcgRIIb) [IL6R-BP267/IL6R-L=100] | Relative FcgRIIaR-binding Activity (FcgRIIaR) [IL6R-BP267/IL6R-L=100]
IL6R-PD024/IL6R-L (antibody, human IgG1, kappa) heavy: QVQLQESGPGLVKPSETLSLTCAVSGHSISHDHAWSWVRQPPGEGLEWIGFISYSGITNYNPSLQGRVTISRDNSKNTLYLQMNSLRAEDTAVYYCARSLARTTAMDYWGEGTLVTVSSASTKGPSVFPLAPSSKSTSGGTAALGCLVKDYFPEPVTVSWNSGALTSGVHTFPAVLQSSGLYSLSSVVTVPSSSLGTQTYICNVNHKPSNTKVDKKVEPKSCDKTHTCPPCPAPELLGGDSVFLFPPKPKDTLYISRTPEVTCVVVDVSHEDPEVKFNWYVDGVEVHNAKTKPREEQYNSTYRVVSVLTVLHQDWLNGKEYKCKVSNKALPYPIEKTISKAKGQPREPQVYTLPPSRDELTKNQVSLTCLVKGFYPSDIAVEWESNGQPENNYKTTPPVLDSDGSFFLYSKLTVDKSRWQQGNVFSCSVMHEALHYHYTQKSLSLSP light: not shown | 74.4 % of IL6R-F652/IL6R-L | 60 % of IL6R-F652/IL6R-L | – | –
IL6R-BP324/IL6R-L (antibody, human IgG1, kappa, name in EU numbering) heavy: QVQLQESGPGLVKPSETLSLTCAVSGHSISHDHAWSWVRQPPGEGLEWIGFISYSGITNYNPSLQGRVTISRDNSKNTLYLQMNSLRAEDTAVYYCARSLARTTAMDYWGEGTLVTVSSASTKGPSVFPLAPSSKSTSGGTAALGCLVKDYFPEPVTVSWNSGALTSGVHTFPAVLQSSGLYSLSSVVTVPSSSLGTQTYICNVNHKPSNTKVDKKVEPKSCDKTHTCPPCPAPDLLGDDSVFLFPPKPKDTLMISRTPEVTCVVVRVSEEDGEVKFNWYVDGVEVHNAKTKPREEQYNSTYRVVSVLTVLHQDWLNGKEYKCKVSNKALPAPIEKTISKAKGQPREPQVYTLPPSRDELTKNQVSLTCLVKGFYPSDIAVEWESNGQPENNYKTTPPVLDSDGSFFLYSKLTVDKSRWQQGNVFSCSVMHEALHNHYTQESLSLSP light: not shown | – | – | 3.2 | 3.7

Continued, values first:

Relative FcgRIIb-binding Activity [1] | Relative FcgRIIaR-binding Activity [2] | Relative FcgRIIb-binding Activity (FcgRIIb) [IL6R-BP267/IL6R-L=100] | Relative FcgRIIaR-binding Activity (FcgRIIaR) [IL6R-BP267/IL6R-L=100] | Binder
102 % of IL6R-F652/IL6R-L | 92.5 % of IL6R-F652/IL6R-L | – | – | IL6R-PD012/IL6R-L (antibody, human IgG1, kappa) heavy: QVQLQESGPGLVKPSETLSLTCAVSGHSISHDHAWSWVRQPPGEGLEWIGFISYSGITNYNPSLQGRVTISRDNSKNTLYLQMNSLRAEDTAVYYCARSLARTTAMDYWGEGTLVTVSSASTKGPSVFPLAPSSKSTSGGTAALGCLVKDYFPEPVTVSWNSGALTSGVHTFPAVLQSSGLYSLSSVVTVPSSSLGTQTYICNVNHKPSNTKVDKKVEPKSCDKTHTCPPCPAPELLGGDSVFLFPPKPKDTLYISRTPEVTCVVVDVSHEDPEVKFNWYVDGVEVHNAKTKPREEQYNSTYRVVSVLTVLHQDWLNGKEYKCKVNNKALPAPIEKTISKAKGQPREPQVYTLPPSRDELTKNQVSLTCLVKGFYPSDIAVEWESNGQPENNYKTTPPVLDSDGSFFLYSKLTVDKSRWQQGNVFSCSVMHEALHYHYTQKSLSLSP light: not shown
102 % of IL6R-F652/IL6R-L | 73.9 % of IL6R-F652/IL6R-L | – | – | IL6R-PD023/IL6R-L (antibody, human IgG1, kappa) heavy: QVQLQESGPGLVKPSETLSLTCAVSGHSISHDHAWSWVRQPPGEGLEWIGFISYSGITNYNPSLQGRVTISRDNSKNTLYLQMNSLRAEDTAVYYCARSLARTTAMDYWGEGTLVTVSSASTKGPSVFPLAPSSKSTSGGTAALGCLVKDYFPEPVTVSWNSGALTSGVHTFPAVLQSSGLYSLSSVVTVPSSSLGTQTYICNVNHKPSNTKVDKKVEPKSCDKTHTCPPCPAPELLGGDSVFLFPPKPKDTLYISRTPEVTCVVVDVSHEDPEVKFNWYVDGVEVHNAKTKPREEQYNSTYRVVSVLTVLHQDWLNGKEYKCKVSNKALPHPIEKTISKAKGQPREPQVYTLPPSRDELTKNQVSLTCLVKGFYPSDIAVEWESNGQPENNYKTTPPVLDSDGSFFLYSKLTVDKSRWQQGNVFSCSVMHEALHYHYTQKSLSLSP light: not shown
– | – | 2.3 | 4.3 | IL6R-BP318/IL6R-L (antibody, human IgG1, kappa, name in EU numbering) heavy: QVQLQESGPGLVKPSETLSLTCAVSGHSISHDHAWSWVRQPPGEGLEWIGFISYSGITNYNPSLQGRVTISRDNSKNTLYLQMNSLRAEDTAVYYCARSLARTTAMDYWGEGTLVTVSSASTKGPSVFPLAPSSKSTSGGTAALGCLVKDYFPEPVTVSWNSGALTSGVHTFPAVLQSSGLYSLSSVVTVPSSSLGTQTYICNVNHKPSNTKVDKKVEPKSCDKTHTCPPCPAPDLLGDDSVFLFPPKPKDTLMISRTPEVTCVVVKVSEEDGEVKFNWYVDGVEVHNAKTKPREEQYNSTYRVVSVLTVLHQDWLNGKEYKCKVSNKALPAPIEKTISKAKGQPREPQVYTLPPSRDELTKNQVSLTCLVKGFYPSDIAVEWESNGQPENNYKTTPPVLDSDGSFFLYSKLTVDKSRWQQGNVFSCSVMHEALHNHYTQESLSLSP light: not shown

Source: US20220411483A1 (Chugai, published 2022)
